B1: Protein PTHB1 (Homo sapiens), Q3SYG4 (parent)
chain: MSLFKARDWWSTILGDKEEFDQGCLCLANVDNSGNGQDKIIVGSFMGYLRIFSPHPAKTGDGAQAEDLLLEVDLRDPVLQVEVGKFVSGTEMLHLAVLHSRKLCVYSVSGTLGNVEHGNQCQMKLMYEHNLQRTACNMTYGSFGGVKGRDLICIQSMDGMLMVFEQESYAFGRFLPGFLLPGPLAYSSRTDSFLTVSSCQQVESYKYQVLAFATDADKRQETEQQKLGSGKRLVVDWTLNIGEQALDICIVSFNQSASSVFVLGERNFFCLKDNGQIRFMKKLDWSPSCFLPYCSVSEGTINTLIGNHNNMLHIYQDVTLKWATQLPHIPVAVRVGCLHDLKGVIVTLSDDGHLQCSYLGTDPSLFQAPNVQSRELNYDELDVEMKELQKIIKDVNKSQGVWPMTEREDDLNVSVVVSPNFDSVSQATDVEVGTDLVPSVTVKVTLQNRVILQKAKLSVYVQPPLELTCDQFTFEFMTPDLTRTVSFSVYLKRSYTPSELEGNAVVSYSRPTDRNPDGIPRVIQCKFRLPLKLICLPGQPSKTASHKITIDTNKSPVSLLSLFPGFASQSDDDQVNVMGFHFLGGARITVLASKTSQRYRIQSEQFEDLWLITNELILRLQEYFEKQGVKDFACSFSGSIPLQEYFELIDHHFELRINGEKLEELLSERAVQFRAIQRRLLARFKDKTPAPLQHLDTLLDGTYKQVIALADAVEENQGNLFQSFTRLKSATHLVILLIALWQKLSADQVAILEAAFLPLQEDTQELGWEETVDAAISHLLKTCLSKSSKEQALNLNSQLNIPKDTSQLKKHITLLCDRLSKGGRLCLSTDAAAPQTMVMPGGCTTIPESDLEERSVEQDSTELFTNHRHLTAETPRPEVSPLQGVSE
partner: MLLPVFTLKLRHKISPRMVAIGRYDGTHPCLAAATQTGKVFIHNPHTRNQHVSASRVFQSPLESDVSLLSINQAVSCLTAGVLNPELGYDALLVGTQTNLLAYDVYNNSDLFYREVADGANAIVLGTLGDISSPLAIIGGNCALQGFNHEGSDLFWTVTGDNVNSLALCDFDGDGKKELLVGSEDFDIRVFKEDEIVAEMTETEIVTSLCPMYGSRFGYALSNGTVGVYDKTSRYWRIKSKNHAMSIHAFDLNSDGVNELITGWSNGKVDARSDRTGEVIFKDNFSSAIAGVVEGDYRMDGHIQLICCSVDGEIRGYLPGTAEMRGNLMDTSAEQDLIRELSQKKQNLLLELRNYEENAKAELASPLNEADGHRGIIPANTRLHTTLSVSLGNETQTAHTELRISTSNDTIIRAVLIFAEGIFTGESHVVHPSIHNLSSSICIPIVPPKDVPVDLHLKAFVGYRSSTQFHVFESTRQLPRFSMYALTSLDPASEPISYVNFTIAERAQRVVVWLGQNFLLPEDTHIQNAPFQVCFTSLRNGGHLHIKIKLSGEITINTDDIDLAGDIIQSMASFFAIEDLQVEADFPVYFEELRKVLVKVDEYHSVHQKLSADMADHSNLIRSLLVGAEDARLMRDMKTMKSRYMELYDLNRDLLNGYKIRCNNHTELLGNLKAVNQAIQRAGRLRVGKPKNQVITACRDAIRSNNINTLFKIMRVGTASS

Variants of: B1
Settings: with bbs2_human BBS2, Q9BXC9

Variant | effect of a mutation on the interaction
L780K | with no effect
L780A | with no effect
L780E | with no effect
D773K | with no effect
D773E | with no effect
D773A | with no effect
E790A | with no effect
E790K | with no effect
S777K | with no effect
S777A | with no effect
S777E | with no effect
K786E | with no effect
K786A | with no effect
L799K | with no effect
L799A | with no effect
L799E | with no effect
K789E | with no effect
K789A | with no effect
T782E | with no effect
T782A | with no effect
T782K | with no effect
L793E | with no effect
L793A | with no effect

Variant | effect of a mutation on the interaction
L793K | with no effect
K803E | with no effect
K803A | with no effect
Q791E | with no effect
Q791L | disrupting interaction strength
Q791A | with no effect
Q791S | disrupting interaction strength
Q791K | with no effect
N794E | with no effect
N794K | with no effect
N794A | with no effect
H778K | with no effect
H778A | with no effect
H778E | with no effect
A792E | with no effect
A792K | with no effect
S785A | disrupting interaction strength
S785E | with no effect
S785K | with no effect
S788E | with no effect
S788A | with no effect
S788K | with no effect
K781E | with no effect

Variant | effect of a mutation on the interaction
K781A | with no effect
L779E | with no effect
L779A | with no effect
L779K | with no effect
N800A | with no effect
N800K | with no effect
N800E | with no effect
I801E | with no effect
I801K | with no effect
I801A | with no effect
D804A | with no effect
D804E | with no effect
Q798K | with no effect
Q798A | with no effect
Q798E | with no effect
L784E | with no effect
L784K | with no effect
L784A | with no effect
P802E | with no effect
P802A | with no effect
P802K | with no effect
L795E | with no effect
L795A | with no effect

Variant | effect of a mutation on the interaction
L795K | with no effect
N796K | with no effect
N796E | with no effect
N796A | with no effect
A774E | with no effect
A774K | with no effect
S787E | with no effect
S787A | with no effect
S787K | with no effect
I776E | with no effect
I776K | with no effect
I776A | with no effect
A775K | with no effect
A775E | with no effect
A775T | disrupting interaction strength
S797A | with no effect
S797K | with no effect
S797E | with no effect
C783A | with no effect
C783K | with no effect
C783E | with no effect
V772K | with no effect
V772E | with no effect

Source: IntAct's records for PubMed 29039417
